Target: guanidine hydrochloride denatured vitamin D binding protein (human) (UniProt P02774)
Assay: covalent complex formation, reducing SDS-PAGE and immunoblot

Chain of UniProt P02774 (P02774 17-474): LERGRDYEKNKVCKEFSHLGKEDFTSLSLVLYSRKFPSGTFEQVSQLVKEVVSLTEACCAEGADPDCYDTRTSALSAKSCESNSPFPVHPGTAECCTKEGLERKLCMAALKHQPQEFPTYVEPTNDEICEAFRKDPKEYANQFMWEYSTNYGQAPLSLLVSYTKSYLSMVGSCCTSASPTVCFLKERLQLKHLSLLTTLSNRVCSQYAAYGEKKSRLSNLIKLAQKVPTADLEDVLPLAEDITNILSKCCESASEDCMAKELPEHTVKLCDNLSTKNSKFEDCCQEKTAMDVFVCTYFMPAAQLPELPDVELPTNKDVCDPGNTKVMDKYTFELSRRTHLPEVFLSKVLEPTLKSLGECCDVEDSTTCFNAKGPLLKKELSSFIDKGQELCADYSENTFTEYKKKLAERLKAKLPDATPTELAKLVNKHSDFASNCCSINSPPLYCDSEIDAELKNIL

fold increase in intensity of the C3b:DBP band, denatured versus native DBP: 5 fold
Substance: complement C3b (natural protein)

From PMC4282830
